B1: DYRK1B (parent)
chain: RFQDLVLRMLEYEPAARISPLGAL
B2: DCTD (parent)
chain: VKGCSMYVALFPCNECAKLIIQAG
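Further: lentivirally expressed fusions sorted by FACS into six bins by GFP to DsRed ratio, PSI derived from sequencing read proportions per bin multiplied by bin number.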

Variants of: B1
Assay: protein stability index of a GFP-peptide fusion (GPS, HEK-293T) (PSI 1-6); higher = more stable
Conditions: c terminus: a fixed tail appended
RFQDLVLRMLEYEPAAPISPLGAL [R17P] showed a protein stability index of 2.75.
RFQDLVLRMLEYEPAAMISPLGAL [R17M] showed a protein stability index of 4.29.
For RFQDLVLRMLEYEPAATISPLGAL [R17T], the protein stability index was 1.
With RFQDLVLRMLEYEPAARISPCGAL [L21C] the protein stability index was 1.98.
RFQDLVLRMLEYEPAARISPAGAL [L21A] showed a protein stability index of 1.75.
For RFQDLVLRMLEYEPAARISPEGAL [L21E], the protein stability index was 1.56.
Variant RFQDLVLRMLEYEPAARISPRGAL [L21R] has a protein stability index of 1.77.
For RFQDLVLRMLEYEPAARISPFGAL [L21F], the protein stability index was 1.36.
For RFQDLVLRMLEYEPAARISPSGAL [L21S], the protein stability index was 2.27.
RFQDLVLRMLEYEPAARISPVGAL [L21V] gave a protein stability index of 2.56.
With RFQDLVLRMLEYEPAARISPYGAL [L21Y] the protein stability index was 2.98.
Variant RFQDLVLRMLEYEPAARISPIGAL [L21I] has a protein stability index of 2.48.
RFQDLVLRMLEYEPAARISPMGAL [L21M] gave a protein stability index of 1.68.
RFQDLVLRMLEYEPAARISPHGAL [L21H] showed a protein stability index of 3.73.
RFQDLVLRMLEYEPAARISPTGAL [L21T] showed a protein stability index of 2.
For RFQDLVLRMLEYEPAARISPPGAL [L21P], the protein stability index was 1.93.
RFQDLVLRMLEYEPAARISPDGAL [L21D] showed a protein stability index of 1.78.
In the case of RFQDLVLRMLEYEPAARISPKGAL [L21K], the protein stability index is reported as 1.19.

Variants of: B2
Assay: as above
Conditions: c terminus: a fixed tail appended
VKGISMYVALFPCNECAKLIIQAG [C4I] gave a protein stability index of 2.89.
Work on VKGSSMYVALFPCNECAKLIIQAG [C4S] yielded a protein stability index of 3.15.
Work on VKGPSMYVALFPCNECAKLIIQAG [C4P] yielded a protein stability index of 1.75.
VKGLSMYVALFPCNECAKLIIQAG [C4L] showed a protein stability index of 2.78.
In the case of VKGESMYVALFPCNECAKLIIQAG [C4E], the protein stability index is reported as 1.71.
Variant VKGASMYVALFPCNECAKLIIQAG [C4A] has a protein stability index of 2.19.
VKGRSMYVALFPCNECAKLIIQAG [C4R] showed a protein stability index of 3.18.
Work on VKGVSMYVALFPCNECAKLIIQAG [C4V] yielded a protein stability index of 2.86.
In the case of VKGTSMYVALFPCNECAKLIIQAG [C4T], the protein stability index is reported as 2.88.
With VKGFSMYVALFPCNECAKLIIQAG [C4F] the protein stability index was 2.92.
In the case of VKGCSCYVALFPCNECAKLIIQAG [M6C], the protein stability index is reported as 2.7.
Work on VKGCSNYVALFPCNECAKLIIQAG [M6N] yielded a protein stability index of 2.2.
Variant VKGCSDYVALFPCNECAKLIIQAG [M6D] has a protein stability index of 1.7.
Variant VKGCSHYVALFPCNECAKLIIQAG [M6H] has a protein stability index of 2.21.
VKGCSYYVALFPCNECAKLIIQAG [M6Y] showed a protein stability index of 2.7.
Work on VKGCSTYVALFPCNECAKLIIQAG [M6T] yielded a protein stability index of 2.33.
With VKGCSQYVALFPCNECAKLIIQAG [M6Q] the protein stability index was 3.17.
VKGCSEYVALFPCNECAKLIIQAG [M6E] showed a protein stability index of 2.2.
In the case of VKGCSAYVALFPCNECAKLIIQAG [M6A], the protein stability index is reported as 3.35.
Work on VKGCSSYVALFPCNECAKLIIQAG [M6S] yielded a protein stability index of 2.46.
With VKGCSRYVALFPCNECAKLIIQAG [M6R] the protein stability index was 1.58.
VKGCSLYVALFPCNECAKLIIQAG [M6L] showed a protein stability index of 4.51.
Work on VKGCSIYVALFPCNECAKLIIQAG [M6I] yielded a protein stability index of 3.81.
VKKCSMYVALFPCNECAKLIIQAG [G3K] showed a protein stability index of 2.53.
For VKACSMYVALFPCNECAKLIIQAG [G3A], the protein stability index was 2.9.
With VKQCSMYVALFPCNECAKLIIQAG [G3Q] the protein stability index was 3.85.
For VKICSMYVALFPCNECAKLIIQAG [G3I], the protein stability index was 3.94.
VKFCSMYVALFPCNECAKLIIQAG [G3F] gave a protein stability index of 2.27.
VKCCSMYVALFPCNECAKLIIQAG [G3C] showed a protein stability index of 2.07.
Variant VKPCSMYVALFPCNECAKLIIQAG [G3P] has a protein stability index of 4.11.
For VKWCSMYVALFPCNECAKLIIQAG [G3W], the protein stability index was 4.42.
In the case of VKMCSMYVALFPCNECAKLIIQAG [G3M], the protein stability index is reported as 4.03.
Work on VKVCSMYVALFPCNECAKLIIQAG [G3V] yielded a protein stability index of 2.23.
In the case of VKDCSMYVALFPCNECAKLIIQAG [G3D], the protein stability index is reported as 3.8.
Variant VKTCSMYVALFPCNECAKLIIQAG [G3T] has a protein stability index of 3.43.
Variant VKYCSMYVALFPCNECAKLIIQAG [G3Y] has a protein stability index of 4.09.
In the case of VKNCSMYVALFPCNECAKLIIQAG [G3N], the protein stability index is reported as 3.06.
Variant VKGCSMHVALFPCNECAKLIIQAG [Y7H] has a protein stability index of 1.78.
VKGCSMIVALFPCNECAKLIIQAG [Y7I] showed a protein stability index of 3.49.
Work on VKGCSMAVALFPCNECAKLIIQAG [Y7A] yielded a protein stability index of 2.65.
VKGCSMDVALFPCNECAKLIIQAG [Y7D] gave a protein stability index of 1.68.
Work on VKGCSMCVALFPCNECAKLIIQAG [Y7C] yielded a protein stability index of 2.84.
In the case of VKGCSMFVALFPCNECAKLIIQAG [Y7F], the protein stability index is reported as 2.5.
In the case of VKGCFMYVALFPCNECAKLIIQAG [S5F], the protein stability index is reported as 2.58.
VKGCNMYVALFPCNECAKLIIQAG [S5N] showed a protein stability index of 2.91.
For VKGCHMYVALFPCNECAKLIIQAG [S5H], the protein stability index was 3.63.
VKGCWMYVALFPCNECAKLIIQAG [S5W] gave a protein stability index of 3.75.
VKGCEMYVALFPCNECAKLIIQAG [S5E] showed a protein stability index of 3.58.
VKGCMMYVALFPCNECAKLIIQAG [S5M] gave a protein stability index of 1.55.
In the case of VKGCCMYVALFPCNECAKLIIQAG [S5C], the protein stability index is reported as 1.73.
Work on VKGCYMYVALFPCNECAKLIIQAG [S5Y] yielded a protein stability index of 1.87.
VKGCKMYVALFPCNECAKLIIQAG [S5K] showed a protein stability index of 2.44.
Variant VKGCPMYVALFPCNECAKLIIQAG [S5P] has a protein stability index of 3.12.
Work on VKGCDMYVALFPCNECAKLIIQAG [S5D] yielded a protein stability index of 2.2.
In the case of CKGCSMYVALFPCNECAKLIIQAG [V1C], the protein stability index is reported as 2.61.
For EKGCSMYVALFPCNECAKLIIQAG [V1E], the protein stability index was 2.15.
With MKGCSMYVALFPCNECAKLIIQAG [V1M] the protein stability index was 3.04.
For GKGCSMYVALFPCNECAKLIIQAG [V1G], the protein stability index was 3.72.
With PKGCSMYVALFPCNECAKLIIQAG [V1P] the protein stability index was 2.74.
Work on IKGCSMYVALFPCNECAKLIIQAG [V1I] yielded a protein stability index of 2.68.
AKGCSMYVALFPCNECAKLIIQAG [V1A] showed a protein stability index of 1.7.
With HKGCSMYVALFPCNECAKLIIQAG [V1H] the protein stability index was 1.54.
Variant SKGCSMYVALFPCNECAKLIIQAG [V1S] has a protein stability index of 3.18.
Work on WKGCSMYVALFPCNECAKLIIQAG [V1W] yielded a protein stability index of 2.09.
TKGCSMYVALFPCNECAKLIIQAG [V1T] gave a protein stability index of 3.12.
Variant KKGCSMYVALFPCNECAKLIIQAG [V1K] has a protein stability index of 3.98.
FKGCSMYVALFPCNECAKLIIQAG [V1F] showed a protein stability index of 3.94.
In the case of VSGCSMYVALFPCNECAKLIIQAG [K2S], the protein stability index is reported as 3.47.
With VRGCSMYVALFPCNECAKLIIQAG [K2R] the protein stability index was 2.54.
For VPGCSMYVALFPCNECAKLIIQAG [K2P], the protein stability index was 2.71.
For VWGCSMYVALFPCNECAKLIIQAG [K2W], the protein stability index was 3.93.
In the case of VDGCSMYVALFPCNECAKLIIQAG [K2D], the protein stability index is reported as 2.7.
For VVGCSMYVALFPCNECAKLIIQAG [K2V], the protein stability index was 4.19.
Variant VHGCSMYVALFPCNECAKLIIQAG [K2H] has a protein stability index of 2.42.
With VFGCSMYVALFPCNECAKLIIQAG [K2F] the protein stability index was 2.27.
Variant VTGCSMYVALFPCNECAKLIIQAG [K2T] has a protein stability index of 3.52.
